{"source": "the supplement of paper PMC9112550", "about": "“Optimization of the antimicrobial peptide Bac7 by deep mutational scanning” (BMC Biology, 2022);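 also: peptides expressed intracellularly from a pBAD plasmid library in pooled LB shake-flask culture, induced with 0.3% L-arabinose, DNA abundance read by NGS, three biological replicates, DESeq2 with apeglm shrinkage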", "data": [{"test_system": "Escherichia coli TOP10", "assay": "shrunken log2 fold change of peptide-encoding DNA abundance (4.5 h post-induction vs induction); higher = less antimicrobial activity (less host growth inhibition)", "settings": "time post-induction: 4.5 h; library: site-saturation at positions 5, 18, 19, 20", "values": [{"sequence": "RRIRKRPPRLPRPRPRPACGPRP", "shrunken log2 fold change": 0.845}, {"sequence": "RRIRARPPRLPRPRPRPPNLPRP", "shrunken log2 fold change": 0.342}, {"sequence": "RRIRLRPPRLPRPRPRPQTPPRP", "shrunken log2 fold change": 0.358}, {"sequence": "RRIRIRPPRLPRPRPRPAPPPRP", "shrunken log2 fold change": 0.398}, {"sequence": "RRIRVRPPRLPRPRPRPTEQPRP", "shrunken log2 fold change": 0.0304}, {"sequence": "RRIRSRPPRLPRPRPRPEMIPRP", "shrunken log2 fold change": 0.0158}, {"sequence": "RRIRARPPRLPRPRPRPEYMPRP", "shrunken log2 fold change": -0.276}, {"sequence": "RRIRYRPPRLPRPRPRPKTYPRP", "shrunken log2 fold change": -0.781}, {"sequence": "RRIRERPPRLPRPRPRPNGAPRP", "shrunken log2 fold change": 0.0556}, {"sequence": "RRIRERPPRLPRPRPRPVGEPRP", "shrunken log2 fold change": -0.0892}, {"sequence": "RRIRCRPPRLPRPRPRPENHPRP", "shrunken log2 fold change": -0.415}, {"sequence": "RRIRWRPPRLPRPRPRPNTVPRP", "shrunken log2 fold change": 0.178}, {"sequence": "RRIRNRPPRLPRPRPRPNEPPRP", "shrunken log2 fold change": -0.000856}, {"sequence": "RRIRTRPPRLPRPRPRPQQFPRP", "shrunken log2 fold change": -0.0175}, {"sequence": "RRIRQRPPRLPRPRPRPIKQPRP", "shrunken log2 fold change": 0.00621}, {"sequence": "RRIRTRPPRLPRPRPRPPDTPRP", "shrunken log2 fold change": 0.0652}, {"sequence": "RRIRKRPPRLPRPRPRPDPCPRP", "shrunken log2 fold change": 0.312}, {"sequence": "RRIRWRPPRLPRPRPRPTKRPRP", "shrunken log2 fold change": 0.202}, {"sequence": "RRIRYRPPRLPRPRPRPEWRPRP", "shrunken log2 fold change": 0.172}, {"sequence": "RRIRDRPPRLPRPRPRPLKWPRP", "shrunken log2 fold change": 0.0491}, {"sequence": "RRIRRRPPRLPRPRPRPECQPRP", "shrunken log2 fold change": 0.253}, {"sequence": "RRIRIRPPRLPRPRPRPKAEPRP", "shrunken log2 fold change": 0.124}, {"sequence": "RRIRRRPPRLPRPRPRPDTFPRP", "shrunken log2 fold change": 0.025}, {"sequence": "RRIRDRPPRLPRPRPRPHNLPRP", "shrunken log2 fold change": 0.156}, {"sequence": "RRIRIRPPRLPRPRPRPKNFPRP", "shrunken log2 fold change": -0.0927}, {"sequence": "RRIRTRPPRLPRPRPRPSLAPRP", "shrunken log2 fold change": 0.105}, {"sequence": "RRIRWRPPRLPRPRPRPYFRPRP", "shrunken log2 fold change": -0.787}, {"sequence": "RRIRERPPRLPRPRPRPYRFPRP", "shrunken log2 fold change": -0.708}, {"sequence": "RRIRARPPRLPRPRPRPSQQPRP", "shrunken log2 fold change": -0.0191}, {"sequence": "RRIRHRPPRLPRPRPRPIILPRP", "shrunken log2 fold change": -0.113}, {"sequence": "RRIRYRPPRLPRPRPRPQQRPRP", "shrunken log2 fold change": -0.261}, {"sequence": "RRIRIRPPRLPRPRPRPCCRPRP", "shrunken log2 fold change": -0.322}, {"sequence": "RRIRLRPPRLPRPRPRPMIPPRP", "shrunken log2 fold change": -0.0974}, {"sequence": "RRIRMRPPRLPRPRPRPTQFPRP", "shrunken log2 fold change": 0.178}, {"sequence": "RRIRMRPPRLPRPRPRPVTSPRP", "shrunken log2 fold change": -0.0914}, {"sequence": "RRIRIRPPRLPRPRPRPPQIPRP", "shrunken log2 fold change": -0.157}, {"sequence": "RRIRYRPPRLPRPRPRPVVHPRP", "shrunken log2 fold change": -0.00114}, {"sequence": "RRIRVRPPRLPRPRPRPEGIPRP", "shrunken log2 fold change": -0.0615}, {"sequence": "RRIRGRPPRLPRPRPRPTFWPRP", "shrunken log2 fold change": 1.51}, {"sequence": "RRIRVRPPRLPRPRPRPKTGPRP", "shrunken log2 fold change": -0.048}, {"sequence": "RRIRVRPPRLPRPRPRPFTRPRP", "shrunken log2 fold change": 0.114}, {"sequence": "RRIRLRPPRLPRPRPRPAGRPRP", "shrunken log2 fold change": 0.0831}, {"sequence": "RRIRDRPPRLPRPRPRPHKIPRP", "shrunken log2 fold change": -0.524}, {"sequence": "RRIRQRPPRLPRPRPRPTWDPRP", "shrunken log2 fold change": 0.0355}, {"sequence": "RRIRRRPPRLPRPRPRPWACPRP", "shrunken log2 fold change": 0.0634}, {"sequence": "RRIRDRPPRLPRPRPRPGNCPRP", "shrunken log2 fold change": 0.153}, {"sequence": "RRIRSRPPRLPRPRPRPKMWPRP", "shrunken log2 fold change": 0.458}, {"sequence": "RRIRPRPPRLPRPRPRPTPCPRP", "shrunken log2 fold change": 0.365}, {"sequence": "RRIRSRPPRLPRPRPRPCQNPRP", "shrunken log2 fold change": 0.0167}, {"sequence": "RRIRARPPRLPRPRPRPHYWPRP", "shrunken log2 fold change": -0.658}, {"sequence": "RRIRGRPPRLPRPRPRPCMEPRP", "shrunken log2 fold change": 0.831}, {"sequence": "RRIRGRPPRLPRPRPRPDGMPRP", "shrunken log2 fold change": 0.86}, {"sequence": "RRIRIRPPRLPRPRPRPSGAPRP", "shrunken log2 fold change": 0.0148}, {"sequence": "RRIRQRPPRLPRPRPRPKICPRP", "shrunken log2 fold change": -0.101}, {"sequence": "RRIRMRPPRLPRPRPRPSCAPRP", "shrunken log2 fold change": 0.563}, {"sequence": "RRIRCRPPRLPRPRPRPSCNPRP", "shrunken log2 fold change": 0.329}, {"sequence": "RRIRNRPPRLPRPRPRPTDCPRP", "shrunken log2 fold change": -0.484}, {"sequence": "RRIRYRPPRLPRPRPRPDTFPRP", "shrunken log2 fold change": -0.016}, {"sequence": "RRIRNRPPRLPRPRPRPWTDPRP", "shrunken log2 fold change": 0.0246}, {"sequence": "RRIRKRPPRLPRPRPRPSLCPRP", "shrunken log2 fold change": -0.239}, {"sequence": "RRIRMRPPRLPRPRPRPYQDPRP", "shrunken log2 fold change": 0.0259}, {"sequence": "RRIRPRPPRLPRPRPRPRAGPRP", "shrunken log2 fold change": 0.626}, {"sequence": "RRIRHRPPRLPRPRPRPFGHPRP", "shrunken log2 fold change": -0.233}, {"sequence": "RRIRSRPPRLPRPRPRPQRLPRP", "shrunken log2 fold change": -0.187}, {"sequence": "RRIRDRPPRLPRPRPRPKTLPRP", "shrunken log2 fold change": -0.21}, {"sequence": "RRIRYRPPRLPRPRPRPMMQPRP", "shrunken log2 fold change": -1.94}, {"sequence": "RRIRQRPPRLPRPRPRPYLCPRP", "shrunken log2 fold change": -0.00822}, {"sequence": "RRIRDRPPRLPRPRPRPAIYPRP", "shrunken log2 fold change": 0.00069}, {"sequence": "RRIRGRPPRLPRPRPRPMNSPRP", "shrunken log2 fold change": 0.0334}, {"sequence": "RRIRERPPRLPRPRPRPSITPRP", "shrunken log2 fold change": -1.36}, {"sequence": "RRIRLRPPRLPRPRPRPYCGPRP", "shrunken log2 fold change": -0.0687}, {"sequence": "RRIRIRPPRLPRPRPRPARYPRP", "shrunken log2 fold change": -0.264}, {"sequence": "RRIRARPPRLPRPRPRPNTTPRP", "shrunken log2 fold change": -0.164}, {"sequence": "RRIRIRPPRLPRPRPRPTAPPRP", "shrunken log2 fold change": 0.0608}, {"sequence": "RRIRRRPPRLPRPRPRPQHEPRP", "shrunken log2 fold change": 0.343}, {"sequence": "RRIRARPPRLPRPRPRPRINPRP", "shrunken log2 fold change": 0.105}, {"sequence": "RRIRHRPPRLPRPRPRPWTTPRP", "shrunken log2 fold change": 0.00489}, {"sequence": "RRIRWRPPRLPRPRPRPPVSPRP", "shrunken log2 fold change": 0.289}, {"sequence": "RRIRRRPPRLPRPRPRPENHPRP", "shrunken log2 fold change": 0.0228}, {"sequence": "RRIRNRPPRLPRPRPRPGAAPRP", "shrunken log2 fold change": 0.417}, {"sequence": "RRIRSRPPRLPRPRPRPKCNPRP", "shrunken log2 fold change": -0.174}, {"sequence": "RRIRQRPPRLPRPRPRPLPEPRP", "shrunken log2 fold change": 0.39}, {"sequence": "RRIRLRPPRLPRPRPRPHKDPRP", "shrunken log2 fold change": -0.697}, {"sequence": "RRIRHRPPRLPRPRPRPGYPPRP", "shrunken log2 fold change": -0.0459}, {"sequence": "RRIRTRPPRLPRPRPRPCIHPRP", "shrunken log2 fold change": -0.11}, {"sequence": "RRIRQRPPRLPRPRPRPTRHPRP", "shrunken log2 fold change": 0.434}, {"sequence": "RRIRQRPPRLPRPRPRPTDNPRP", "shrunken log2 fold change": -0.335}, {"sequence": "RRIRVRPPRLPRPRPRPNNCPRP", "shrunken log2 fold change": -0.0726}, {"sequence": "RRIRRRPPRLPRPRPRPHGGPRP", "shrunken log2 fold change": 0.0449}, {"sequence": "RRIRNRPPRLPRPRPRPKSIPRP", "shrunken log2 fold change": -0.569}, {"sequence": "RRIRKRPPRLPRPRPRPMNIPRP", "shrunken log2 fold change": -0.213}, {"sequence": "RRIRFRPPRLPRPRPRPPLTPRP", "shrunken log2 fold change": 0.354}, {"sequence": "RRIRGRPPRLPRPRPRPQHKPRP", "shrunken log2 fold change": -0.00366}, {"sequence": "RRIRPRPPRLPRPRPRPRWAPRP", "shrunken log2 fold change": 0.394}, {"sequence": "RRIRGRPPRLPRPRPRPTWEPRP", "shrunken log2 fold change": 0.031}, {"sequence": "RRIRLRPPRLPRPRPRPEMYPRP", "shrunken log2 fold change": -0.00133}, {"sequence": "RRIRNRPPRLPRPRPRPAAKPRP", "shrunken log2 fold change": -0.0209}, {"sequence": "RRIRSRPPRLPRPRPRPLMVPRP", "shrunken log2 fold change": 0.134}, {"sequence": "RRIRSRPPRLPRPRPRPCELPRP", "shrunken log2 fold change": 0.0778}, {"sequence": "RRIRTRPPRLPRPRPRPMMQPRP", "shrunken log2 fold change": -0.0796}, {"sequence": "RRIRNRPPRLPRPRPRPWYYPRP", "shrunken log2 fold change": -0.122}, {"sequence": "RRIRNRPPRLPRPRPRPLFGPRP", "shrunken log2 fold change": 0.0228}, {"sequence": "RRIRNRPPRLPRPRPRPRRAPRP", "shrunken log2 fold change": 0.604}, {"sequence": "RRIRCRPPRLPRPRPRPMASPRP", "shrunken log2 fold change": -0.00968}, {"sequence": "RRIRQRPPRLPRPRPRPACHPRP", "shrunken log2 fold change": 0.105}, {"sequence": "RRIRHRPPRLPRPRPRPIPMPRP", "shrunken log2 fold change": -0.0582}, {"sequence": "RRIRTRPPRLPRPRPRPFRFPRP", "shrunken log2 fold change": -0.00476}, {"sequence": "RRIRWRPPRLPRPRPRPATVPRP", "shrunken log2 fold change": 0.111}, {"sequence": "RRIRQRPPRLPRPRPRPHVDPRP", "shrunken log2 fold change": -0.088}]}]}
